Data as given in article PMC12329598.

Assays:
[1] = target: 1-442 Rap1GAP1a-RlucII, P47736-1; assay: ebBRET (Rap1GAP1a-RlucII recruitment to rGFP-CaaX at the plasma membrane); settings: A293 cells with μ-opioid receptor, 48 h post-transfection, read off a plot
[2] = target: 1-442 Rap1GAP1a-RlucII, P47736-1; assay: ebBRET (agonist-induced net BRET, Rap1GAP1a-RlucII recruitment to the plasma membrane); settings: 10 μM DAMGO; parent: est. 0.22; read off a plot
[3] = target: 1-442 Rap1GAP1a-RlucII, P47736-1; assay: ebBRET (Rap1GAP1a-RlucII recruitment to the plasma membrane); settings: A293 cells, parent: est. 0.17, read off a plot
[4] = double mutant in Gαo(Q205L) background, Gαo(Q205L) bar in same panel est. 0.39

1-442 Rap1GAP1a-RlucII, P47736-1, sequence (P47736 1-442 S437A/S439A/S441A): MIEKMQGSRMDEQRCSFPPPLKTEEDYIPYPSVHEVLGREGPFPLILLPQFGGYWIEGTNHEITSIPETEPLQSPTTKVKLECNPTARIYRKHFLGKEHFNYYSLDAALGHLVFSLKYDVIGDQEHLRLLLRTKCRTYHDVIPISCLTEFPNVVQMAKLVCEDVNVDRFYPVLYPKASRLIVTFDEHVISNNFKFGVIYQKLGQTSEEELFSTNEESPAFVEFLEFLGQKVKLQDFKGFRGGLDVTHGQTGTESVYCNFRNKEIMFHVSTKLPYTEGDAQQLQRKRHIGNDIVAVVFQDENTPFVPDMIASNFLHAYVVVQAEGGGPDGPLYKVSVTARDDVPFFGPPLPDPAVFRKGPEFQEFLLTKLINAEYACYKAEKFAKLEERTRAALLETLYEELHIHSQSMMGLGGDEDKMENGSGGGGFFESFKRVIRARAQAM

HA-Gαo^(WT) (from UniProt P09471) A221D
response ([1]; 10 μM DAMGO, parent: est. 0.32): 0.18 BRET ratio | response ([1]; vehicle, parent: est. 0.12): 0.04 BRET ratio | response [2]: 0.14 Net BRET

HA-Gαo^(WT) (from UniProt P09471) E237K
response ([1]; 10 μM DAMGO, parent: est. 0.32): 0.11 BRET ratio | response ([1]; vehicle, parent: est. 0.12): 0.04 BRET ratio | response [2]: 0.07 Net BRET

HA-Gαo^(WT) (from UniProt P09471) E246G
response ([1]; 10 μM DAMGO, parent: est. 0.32): 0.06 BRET ratio | response ([1]; vehicle, parent: est. 0.12): 0.035 BRET ratio | response [2]: 0.03 Net BRET

HA-Gαo^(WT) (from UniProt P09471) G203E
response ([1]; 10 μM DAMGO, parent: est. 0.32): 0.08 BRET ratio | response ([1]; vehicle, parent: est. 0.12): 0.035 BRET ratio | response [2]: 0.04 Net BRET

HA-Gαo^(WT) (from UniProt P09471) N242T
response ([1]; 10 μM DAMGO, parent: est. 0.32): 0.3 BRET ratio | response ([1]; vehicle, parent: est. 0.12): 0.07 BRET ratio | response [2]: 0.23 Net BRET

HA-Gαo^(WT) (from UniProt P09471) Q205L
response ([3]; no-Gαo control bar est. 0.07): 0.39 BRET ratio

HA-Gαo^(WT) (from UniProt P09471) Q205L; A221D
response [3, 4]: 0.37 BRET ratio

HA-Gαo^(WT) (from UniProt P09471) Q205L; E237K
response [3, 4]: 0.14 BRET ratio

HA-Gαo^(WT) (from UniProt P09471) Q205L; E246G
response [3, 4]: 0.08 BRET ratio

HA-Gαo^(WT) (from UniProt P09471) Q205L; G203E
response [3, 4]: 0.085 BRET ratio

HA-Gαo^(WT) (from UniProt P09471) Q205L; N242T
response [3, 4]: 0.41 BRET ratio

HA-Gαo^(WT) (from UniProt P09471) Q205L; R209C
response [3, 4]: 0.035 BRET ratio

HA-Gαo^(WT) (from UniProt P09471) Q205L; R209H
response [3, 4]: 0.04 BRET ratio

HA-Gαo^(WT) (from UniProt P09471) R209C
response ([1]; 10 μM DAMGO, parent: est. 0.32): 0.04 BRET ratio | response ([1]; vehicle, parent: est. 0.12): 0.03 BRET ratio | response [2]: 0.012 Net BRET

HA-Gαo^(WT) (from UniProt P09471) R209H
response ([1]; 10 μM DAMGO, parent: est. 0.32): 0.045 BRET ratio | response ([1]; vehicle, parent: est. 0.12): 0.035 BRET ratio | response [2]: 0.015 Net BRET
